Test results: patent publication US7109015B2, “Removal of N-terminal methionine from proteins by engineered methionine aminopeptidase” (Academia Sinica, priority 2004, dated 2006)
Where two headings read alike, the source gives them in different places.

Tests used:
[1] = target: CA150, a transcription elongation regulator 1 (Escherichia coli, UniProt P0AE18, M206T/Q233G); settings: substrate MLAGA (SEQ ID NO:20)-CA150; solubility +
From the text: (§1) The rpr (AF332139) gene encoding for the target protein, onconase, from Rana pipiens was tagged with NdeI and BamHI site at the 5′ and 3′ end, respectively, and inserted downstream of T7 promoter in the expression vector pET22b (Novagen) (Liao et al., 2003; Huang et al., 1998; Liao et al., 2000). The other target proteins were also cloned by the same method, including RC-RNase L1 (AF288642.2), RC-RNase 2 (AF242553), RC-RNase 3 (AF242554), RC-RNase 4 (AF242555), RC-RNase6 (AF242556) from Rana catesbeiana, CA150 (a transcription elongation regulator 1; NM_006706) and glutathione S-transferase (M14654).
(§2) The Escherichia coli methionine aminopeptidase gene (Accession Number M 15106) or its mutant was fused with the T7 promoter by three steps of PCR and inserted into the same pET22b vector containing a target protein, as described above, through SacI and HindIII. […] The second PCR was performed using the PCR product from step 1 as 5′ megaprimer, oligonucleotide 3 (5′[…]3′; SEQ ID NO:4) as 3′ primer, and the E. coli MetAP gene (M15101) as template (Huang et al., 1998; Ben-Bassat et al., 1987). The third PCR was to amplify the second PCR product using oligonucleotide 1 and oligonucleotide 3 as primers. The genes encoding the target protein and E. coli MetAP have their own T7 RNA polymerase promoter, but they may be transcribed into the same RNA molecule for cotranslation because only one transcription terminator exists, downstream of the MetAP gene. Alternatively, the MetAP gene alone may be directly subcloned into vector pET29b through the SacI and HindIII site.
(§3) The MetAP was expressed alone or co-expressed with a target protein, i.e., onconase and RC-RNaseL1, in E. coli BL21 (DE3) in the presence of 0.5 mM IPTG at 37° C.
(§4) Proteins in the cell pellet or in the soluble fraction were separated by 13.3% SDS-PAGE and contact-transferred to ProBlott™ membrane (Applied Bioystems) in transfer buffer (10 mM Tris-HCl, pH 7.5, 50 mM NaCl, 2 mM EDTA, 0.5 mM 2-mercaptoethanol) overnight. The five N-terminal residues of the transferred protein were determined by Edman degradation. The percentage of Met removal was calculated by dividing the amount of proteins initiated with the penultimate residue with the amount of total proteins (including proteins initiated with the penultimate residue and unprocessed protein initiated with Met) after the first degradation cycle. In theory, this percentage should remain the same after each degradation cycle. Therefore, in order to avoid experimental variation, the same calculation was made from five consecutive degradation cycles, e.g., M, Q, N, W and L for onconase. The efficiency of Met removal is reported as the mean values of at least three cycles. The mass spectrum analysis was carried out as described previously (Liao et al., 2003).

RC-RNase2 = RC-RNase2 (Escherichia coli, UniProt P0AE18, M206T/Q233G); settings: substrate MQNEW (SEQ ID NO:17)-RC2; solubility −
From the text: as §1, §2, §3, §4

RC-RNase3 = RC-RNase3 (Escherichia coli, UniProt P0AE18, M206T/Q233G); settings: substrate MQDWE (SEQ ID NO:11)-RC3; solubility −
From the text: as §1, §2, §3, §4

RC-RNase6 = RC-RNase6 (Escherichia coli, UniProt P0AE18, M206T/Q233G); settings: substrate MQDWD (SEQ ID NO:12)-RC6; solubility −
From the text: as §1, §2, §3, §4

RC-RNaseL1 = RC-RNaseL1 (Escherichia coli, UniProt P0AE18, M206T/Q233G); settings: solubility −
From the text: as §1, §2, §3, §4

[2] = target: glutathione S-transferase (GST) (Escherichia coli, UniProt P0AE18, M206T/Q233G); settings: substrate MQDIL (SEQ ID NO:21)-GST
From the text: as §1, §2, §3, §4

synthetic oligopeptides = type: biochemical; settings: for Specific activity (unit/mg): 4 mM oligopeptide, pH 7.5, 37° C.
Method: The oligopeptide substrates used in this experiment were synthesized on the 432A Synergy peptide synthesizer (Applied Biosystems, Foster, Calif., USA). The enzymatic activity of purified MetAP was assayed as described by Ben-Bassat et al., 1987. Briefly, the diluted MetAP enzyme in 10 μl was added to 90 μl of the substrate solution containing 4 mM oligopeptide, 0.1 M potassium phosphate buffer, pH 7.5 and 0.2 mM CoCl2, incubated at 37° C. for 10 min and stopped in boiling water for 2 min. After addition of 0.9 ml of color development mixture containing 0.2 mg of L-amino acid oxidase, 0.03 mg of horseradish peroxidase and 0.2 mg of o-dianisidine in 0.1 M Tris-HCl, pH 7.4, the mixtures were incubated for 10 min at 37° C., and the optical density at 440 nm was recorded. One unit of activity is defined as 1 μmol of amino acids produced per min under the assay conditions and the pure Met was used as standard. The N-terminal residues of the MetAP-treated oligopeptide were further verified by Edman degradation.

[3] = substrate MQNWA (SEQ ID NO:18)-RCL1

B1: MetAP-*TG (protein)
chain: AISIKTPEDIEKMRVAGRLAAEVLEMIEPYVKPGVSTGELDRICNDYIVNEQHAVSACLGYHGYPKSVCISINEVVCHGIPDDAKLLKDGDIVNIDVTVIKDGFHGDTSKMFIVGKPTIMGERLCRITQESLYLALRMVKPGINLREIGAAIQKFVEAEGFSVVREYCGHGIGRGFHEEPQVLHYDSRETNVVLKPGMTFTIEPTVNAGKKEIRTMKDGWTVKTKDRSLSAGYEHTIVVTDNGCEILTLRKDDTIPAIISHDE
[1]
  Catalytic activity (%): percent of penultimate residue removed: 71%
  Catalytic activity (%): removal of N-terminal Met: 100%
RC-RNase2
  Catalytic activity (%): percent of penultimate residue removed: 56%
  Catalytic activity (%): removal of N-terminal Met: 80%
RC-RNase3
  Catalytic activity (%): removal of N-terminal Met: 96%
RC-RNase6
  Catalytic activity (%): removal of N-terminal Met: 82%
RC-RNaseL1; substrate MQDWA (SEQ ID NO:19)-RCL1
  Catalytic activity (%): removal of N-terminal Met: 99%
RC-RNaseL1; [3]
  Catalytic activity (%): percent of penultimate residue removed: 62%
  Catalytic activity (%): removal of N-terminal Met: 96%
[2]; solubility +, same vector
  Catalytic activity (%): removal of N-terminal Met: 87%
[2]; solubility +, target in pET22b co-transformed with MetAP in pET29b
  Catalytic activity (%): removal of N-terminal Met: 71%
[2]; solubility −, same vector
  Catalytic activity (%): removal of N-terminal Met: 85%
[2]; solubility −, target in pET22b co-transformed with MetAP in pET29b
  Catalytic activity (%): removal of N-terminal Met: 70%
Synthetic oligopeptides; oligopeptides ranging from tetra- to dodecapeptides with Ala at the penultimate site
  In vitro catalytic activity: high catalytic activity
Synthetic oligopeptides; substrate MADY (SEQ ID NO:7)
  Specific activity (unit/mg): 72 ± 10 unit/mg
Synthetic oligopeptides; substrate MADYLT (SEQ ID NO:8)
  Specific activity (unit/mg): 116 ± 4 unit/mg
Synthetic oligopeptides; substrate MQDYLT (SEQ ID NO:9)
  Specific activity (unit/mg): 0.42 ± 0.02 unit/mg
Synthetic oligopeptides; substrate […] (SEQ ID NO:5)
  Specific activity (unit/mg): 73 ± 15 unit/mg
Synthetic oligopeptides; substrate […] (SEQ ID NO:6)
  Specific activity (unit/mg): 0.59 ± 0.07 unit/mg
